From patent US20080233131A1

Assays:
[1] = biological target: cynomolgus macaque CD4 on lymphocytes / PBMC (cynomolgus macaque (Macaca fascicularis)) (UniProt P79185); assay: flow cytometry of whole blood of TRX1-immunised macaques; competitor 7E14-RPE
[2] = biological target: cynomolgus macaque CD4 on lymphocytes / PBMC (cynomolgus macaque (Macaca fascicularis)) (UniProt P79185); assay: flow cytometry of whole blood of TRX1-treated macaques; competitor SK3-RPE

Chain of UniProt P79185 (P79185 26-458 limits assumed): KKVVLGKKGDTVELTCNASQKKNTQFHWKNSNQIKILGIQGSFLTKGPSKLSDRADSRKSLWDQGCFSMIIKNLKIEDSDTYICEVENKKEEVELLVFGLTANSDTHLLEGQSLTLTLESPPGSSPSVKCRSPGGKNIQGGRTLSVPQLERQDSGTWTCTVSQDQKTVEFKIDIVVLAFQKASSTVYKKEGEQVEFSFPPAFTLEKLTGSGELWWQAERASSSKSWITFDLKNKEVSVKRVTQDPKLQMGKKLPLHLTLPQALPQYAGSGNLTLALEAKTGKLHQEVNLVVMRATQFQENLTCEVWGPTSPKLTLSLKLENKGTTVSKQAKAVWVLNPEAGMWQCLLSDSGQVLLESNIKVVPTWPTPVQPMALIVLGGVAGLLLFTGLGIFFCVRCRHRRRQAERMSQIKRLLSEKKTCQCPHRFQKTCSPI

reduction in the MFI of 7E14 staining [1]: 50%
reduction in the MFI of SK3 staining [2]: 50%
Substance: humanized anti-human CD4 monoclonal antibody TRX1
